Data: paper PMC4434323

What was measured:
[1] = target: egrh-1 (C27C12.2) (Caenorhabditis elegans) (UniProt Q18250)
[2] = target: T1, B0310.2 (B0310.2) (Caenorhabditis elegans) (UniProt Q10938)
T1 sequence: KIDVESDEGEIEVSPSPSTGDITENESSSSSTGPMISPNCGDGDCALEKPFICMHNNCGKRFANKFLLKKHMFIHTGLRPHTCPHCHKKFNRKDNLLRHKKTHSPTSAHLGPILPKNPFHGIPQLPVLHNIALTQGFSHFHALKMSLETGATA

[3] = target: T2, die-1 (C18D1.1) (Caenorhabditis elegans) (UniProt A0A131MCR4)
T2 sequence: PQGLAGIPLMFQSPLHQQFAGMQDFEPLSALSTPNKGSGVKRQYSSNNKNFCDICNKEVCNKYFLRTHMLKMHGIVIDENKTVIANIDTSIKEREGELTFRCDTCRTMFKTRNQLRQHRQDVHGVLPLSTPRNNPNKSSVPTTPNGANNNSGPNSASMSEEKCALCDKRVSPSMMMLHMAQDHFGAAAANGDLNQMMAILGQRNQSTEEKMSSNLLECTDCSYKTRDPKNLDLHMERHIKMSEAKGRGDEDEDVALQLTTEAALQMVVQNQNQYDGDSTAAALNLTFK

[4] = target: ZC328.2 (ZC328.2) (Caenorhabditis elegans) (UniProt O02050)
[5] = target: T3, ham-2 (C07A12.1) (Caenorhabditis elegans) (UniProt H2KYH4)
T3 sequence: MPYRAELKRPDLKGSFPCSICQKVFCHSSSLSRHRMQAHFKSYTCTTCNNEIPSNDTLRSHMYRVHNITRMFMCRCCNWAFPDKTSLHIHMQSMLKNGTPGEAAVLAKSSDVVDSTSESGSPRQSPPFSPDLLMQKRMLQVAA

[6] = target: T4, zip-3 (W07G1.3) (Caenorhabditis elegans) (UniProt Q9XUK2)
T4 sequence: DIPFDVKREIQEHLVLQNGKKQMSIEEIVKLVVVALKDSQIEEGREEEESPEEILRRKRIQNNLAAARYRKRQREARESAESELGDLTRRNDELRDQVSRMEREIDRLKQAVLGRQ

[7] = target: T5, atf-5 (T04C10.4) (Caenorhabditis elegans) (UniProt Q22156)
T5 sequence: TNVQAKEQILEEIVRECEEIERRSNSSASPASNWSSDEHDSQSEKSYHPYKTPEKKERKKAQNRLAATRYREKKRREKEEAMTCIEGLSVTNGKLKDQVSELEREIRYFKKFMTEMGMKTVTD

[8] = target: atf-7 (C07G2.2) (Caenorhabditis elegans) (UniProt Q86MD3)
[9] = target: T6, ZK337.2 (ZK337.2) (Caenorhabditis elegans) (UniProt O46016)
T6 sequence: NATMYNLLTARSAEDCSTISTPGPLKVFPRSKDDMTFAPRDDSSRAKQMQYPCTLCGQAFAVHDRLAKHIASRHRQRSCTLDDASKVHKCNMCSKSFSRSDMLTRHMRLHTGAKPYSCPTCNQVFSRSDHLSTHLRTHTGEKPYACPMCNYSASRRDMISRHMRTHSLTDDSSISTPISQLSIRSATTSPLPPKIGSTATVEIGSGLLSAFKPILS

[10] = target: T7, ztf-29 (Y66D12A.12) (Caenorhabditis elegans) (UniProt Q95Q03)
T7 sequence: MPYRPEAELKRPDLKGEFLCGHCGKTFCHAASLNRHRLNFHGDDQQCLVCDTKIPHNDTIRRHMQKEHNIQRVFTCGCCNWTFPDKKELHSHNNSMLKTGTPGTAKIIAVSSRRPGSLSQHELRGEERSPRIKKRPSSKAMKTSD

[11] = target: T8, ztf-19 (T27B1.2) (Caenorhabditis elegans) (UniProt Q22829)
T8 sequence: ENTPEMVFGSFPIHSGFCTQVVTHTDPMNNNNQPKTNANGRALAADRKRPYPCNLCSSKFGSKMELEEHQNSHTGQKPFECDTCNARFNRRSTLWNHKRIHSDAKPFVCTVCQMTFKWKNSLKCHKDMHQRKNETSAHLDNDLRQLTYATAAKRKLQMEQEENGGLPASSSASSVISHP

[12] = target: T9, skn-1 (T19E7.2) (Caenorhabditis elegans) (UniProt P34707)
T9 sequence: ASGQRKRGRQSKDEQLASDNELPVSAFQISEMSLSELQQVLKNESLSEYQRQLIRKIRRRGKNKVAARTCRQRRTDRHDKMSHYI

Sequence of ZC328.2 (ZC328.2) (Caenorhabditis elegans) (O02050 entry or part of it): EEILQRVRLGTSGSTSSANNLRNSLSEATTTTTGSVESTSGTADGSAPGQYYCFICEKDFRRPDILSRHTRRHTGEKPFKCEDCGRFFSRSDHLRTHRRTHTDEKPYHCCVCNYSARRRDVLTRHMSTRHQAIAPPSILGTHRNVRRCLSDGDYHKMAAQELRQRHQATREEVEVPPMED
Sequence of egrh-1 (C27C12.2) (Caenorhabditis elegans) (Q18250 324-461): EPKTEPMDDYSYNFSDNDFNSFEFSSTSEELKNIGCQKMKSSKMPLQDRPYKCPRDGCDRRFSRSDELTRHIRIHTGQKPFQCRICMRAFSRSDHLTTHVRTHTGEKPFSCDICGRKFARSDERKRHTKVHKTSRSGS
Sequence of atf-7 (C07G2.2) (Caenorhabditis elegans) (Q86MD3 339-508): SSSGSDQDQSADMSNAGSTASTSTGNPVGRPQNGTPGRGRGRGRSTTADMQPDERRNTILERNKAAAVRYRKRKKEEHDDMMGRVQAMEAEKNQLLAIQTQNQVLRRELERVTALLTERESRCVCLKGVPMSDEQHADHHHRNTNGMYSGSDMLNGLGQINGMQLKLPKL

Work on “AGGGGGCG (double strand) [8-mer AGGGGGCG]” yielded a binding signal (PBM E-score (-0.5 to 0.5)) [1] of 0.486.

“CTACCTCA (double strand) [8-mer CTACCTCA]” showed a binding signal (PBM E-score (-0.5 to 0.5)) [2] of 0.484.

“ATTTAAAA (double strand) [8-mer ATTTAAAA]” showed a binding signal (PBM E-score (-0.5 to 0.5)) [3] of 0.481.

“GTGAGGGA (double strand) [8-mer GTGAGGGA]” gave a binding signal (PBM E-score (-0.5 to 0.5)) [2] of 0.478.

For “ACCTCACT (double strand) [8-mer ACCTCACT]”, the binding signal (PBM E-score (-0.5 to 0.5)) [2] was 0.478.

Sequence “GTTTAAAA (double strand) [8-mer GTTTAAAA]” has a binding signal (PBM E-score (-0.5 to 0.5)) [3] of 0.471.

“GGTTTAAA (double strand) [8-mer GGTTTAAA]” gave a binding signal (PBM E-score (-0.5 to 0.5)) [3] of 0.484.

In the case of “ACCCCCGC (double strand) [8-mer ACCCCCGC]”, the binding signal (PBM E-score (-0.5 to 0.5)) [4] is reported as 0.492 and the binding signal (PBM E-score (-0.5 to 0.5)) [1] is reported as 0.485.

Sequence “ATGCTAAT (double strand) [8-mer ATGCTAAT]” has a binding signal (PBM E-score (-0.5 to 0.5)) [5] of 0.478.

With “ATACCTCA (double strand) [8-mer ATACCTCA]” the binding signal (PBM E-score (-0.5 to 0.5)) [2] was 0.485.

With “ACGTCATA (double strand) [8-mer ACGTCATA]” the binding signal (PBM E-score (-0.5 to 0.5)) [6] was 0.493, the binding signal (PBM E-score (-0.5 to 0.5)) [7] was 0.464 and the binding signal (PBM E-score (-0.5 to 0.5)) [8] was 0.497.

Sequence “GCCCACGC (double strand) [8-mer GCCCACGC]” has a binding signal (PBM E-score (-0.5 to 0.5)) [4] of 0.485 and a binding signal (PBM E-score (-0.5 to 0.5)) [1] of 0.495.

Sequence “CCCACGCA (double strand) [8-mer CCCACGCA]” has a binding signal (PBM E-score (-0.5 to 0.5)) [4] of 0.497, a binding signal (PBM E-score (-0.5 to 0.5)) [1] of 0.496 and a binding signal (PBM E-score (-0.5 to 0.5)) [9] of 0.488.

Work on “AGCTAGCT (double strand) [8-mer AGCTAGCT]” yielded a binding signal (PBM E-score (-0.5 to 0.5)) [5] of 0.488.

“CTTTTAAA (double strand) [8-mer CTTTTAAA]” was tested, and the binding signal (PBM E-score (-0.5 to 0.5)) [3] was 0.47.

Sequence “AAGCTTAC (double strand) [8-mer AAGCTTAC]” has a binding signal (PBM E-score (-0.5 to 0.5)) [10] of 0.485 and a binding signal (PBM E-score (-0.5 to 0.5)) [5] of 0.489.

In the case of “AATTTAAA (double strand) [8-mer AATTTAAA]”, the binding signal (PBM E-score (-0.5 to 0.5)) [3] is reported as 0.497.

Sequence “TTAGCTAA (double strand) [8-mer TTAGCTAA]” has a binding signal (PBM E-score (-0.5 to 0.5)) [5] of 0.483.

With “CCCCCACA (double strand) [8-mer CCCCCACA]” the binding signal (PBM E-score (-0.5 to 0.5)) [1] was 0.489.

“GTTTAAAC (double strand) [8-mer GTTTAAAC]” showed a binding signal (PBM E-score (-0.5 to 0.5)) [11] of 0.494 and a binding signal (PBM E-score (-0.5 to 0.5)) [3] of 0.481.

“TTTTAAAA (double strand) [8-mer TTTTAAAA]” showed a binding signal (PBM E-score (-0.5 to 0.5)) [3] of 0.494.

Sequence “TAAGCTTA (double strand) [8-mer TAAGCTTA]” has a binding signal (PBM E-score (-0.5 to 0.5)) [10] of 0.496 and a binding signal (PBM E-score (-0.5 to 0.5)) [5] of 0.497.

With “CCTCAATC (double strand) [8-mer CCTCAATC]” the binding signal (PBM E-score (-0.5 to 0.5)) [2] was 0.477.

Sequence “CGCCCACG (double strand) [8-mer CGCCCACG]” has a binding signal (PBM E-score (-0.5 to 0.5)) [1] of 0.495 and a binding signal (PBM E-score (-0.5 to 0.5)) [9] of 0.492.

“GAACCTCA (double strand) [8-mer GAACCTCA]” was tested, and the binding signal (PBM E-score (-0.5 to 0.5)) [2] was 0.48.

With “CGTCATCA (double strand) [8-mer CGTCATCA]” the binding signal (PBM E-score (-0.5 to 0.5)) [6] was 0.489 and the binding signal (PBM E-score (-0.5 to 0.5)) [12] was 0.492.

“ATTTAAAC (double strand) [8-mer ATTTAAAC]” was tested, and the binding signal (PBM E-score (-0.5 to 0.5)) [3] was 0.484.

Work on “GATTTAAA (double strand) [8-mer GATTTAAA]” yielded a binding signal (PBM E-score (-0.5 to 0.5)) [3] of 0.477.

Sequence “CCCCCGCA (double strand) [8-mer CCCCCGCA]” has a binding signal (PBM E-score (-0.5 to 0.5)) [4] of 0.497, a binding signal (PBM E-score (-0.5 to 0.5)) [1] of 0.495 and a binding signal (PBM E-score (-0.5 to 0.5)) [9] of 0.494.

“AAGCTAGC (double strand) [8-mer AAGCTAGC]” gave a binding signal (PBM E-score (-0.5 to 0.5)) [5] of 0.476.

With “AACCTCAA (double strand) [8-mer AACCTCAA]” the binding signal (PBM E-score (-0.5 to 0.5)) [2] was 0.483.
